Results from patent publication US20230220589A1.

Experiments:
[1] = target: M44-modified I NTAA target peptides (M44-I-P2-peptide); experiment: encoding assay; P2 D
[2] = target: M44-modified M NTAA target peptides; experiment: encoding assay; P2 D
[3] = target: M44-modified F NTAA target peptides (M44-F-P2-peptide); experiment: encoding assay; P2 D;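 note: fraction of recording tags encoded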
[4] = target: M44-modified N NTAA target peptides; experiment: encoding assay; P2 D
[5] = target: M44-modified L NTAA target peptides (M44-L-P2-peptide); experiment: encoding assay; P2 D;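 note: fraction of recording tags encoded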
[6] = target: M44-modified W NTAA target peptides; experiment: encoding assay; P2 D;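 note: fraction of recording tags encoded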
[7] = target: M44-modified G NTAA target peptides (M44-G-P2-peptide); experiment: encoding assay; P2 D;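 note: fraction of recording tags encoded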
[8] = target: M44-modified Y NTAA target peptides (M44-Y-P2-peptide); experiment: encoding assay; P2 D;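 note: fraction of recording tags encoded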
[9] = target: M44-modified A NTAA target peptides (M44-A-P2-peptide); experiment: encoding assay; P2 D
[10] = target: M44-modified H NTAA target peptides; experiment: encoding assay; P2 W
[11] = target: M44-modified V NTAA target peptides; experiment: encoding assay; P2 W;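 note: fraction of recording tags encoded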
[12] = target: M44-modified I NTAA target peptides (M44-I-P2-peptide); experiment: encoding assay; P2 W
[13] = target: M44-modified M NTAA target peptides; experiment: encoding assay; P2 W
[14] = target: M44-modified Q NTAA target peptides; experiment: encoding assay; P2 W
[15] = target: M44-modified F NTAA target peptides (M44-F-P2-peptide); experiment: encoding assay; P2 W;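 note: fraction of recording tags encoded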
[16] = target: M44-modified N NTAA target peptides; experiment: encoding assay; P2 W
[17] = target: M44-modified L NTAA target peptides (M44-L-P2-peptide); experiment: encoding assay; P2 W;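 note: fraction of recording tags encoded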
[18] = target: M44-modified S NTAA target peptides; experiment: encoding assay; P2 W
[19] = target: M44-modified W NTAA target peptides; experiment: encoding assay; P2 W;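 note: fraction of recording tags encoded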
[20] = target: M44-modified G NTAA target peptides (M44-G-P2-peptide); experiment: encoding assay; P2 W;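 note: fraction of recording tags encoded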
[21] = target: M44-modified D NTAA target peptides; experiment: encoding assay; P2 W;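 note: fraction of recording tags encoded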
[22] = target: M44-modified Y NTAA target peptides (M44-Y-P2-peptide); experiment: encoding assay; P2 W;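 note: fraction of recording tags encoded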
[23] = target: M44-modified P NTAA target peptides; experiment: encoding assay; P2 W;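 note: fraction of recording tags encoded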
[24] = target: M44-modified A NTAA target peptides (M44-A-P2-peptide); experiment: encoding assay; P2 W
[25] = target: M44-modified T NTAA target peptides; experiment: encoding assay; P2 W
[26] = target: M17-modified V NTAA target peptides; experiment: encoding assay; P2 E;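 note: fraction of recording tags encoded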
[27] = target: M17-modified H NTAA target peptides; experiment: encoding assay; P2 E;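 note: fraction of recording tags encoded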
[28] = target: M17-modified A NTAA target peptides; experiment: encoding assay; P2 E;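 note: fraction of recording tags encoded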
[29] = target: M17-modified E NTAA target peptides; experiment: encoding assay; P2 E;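 note: fraction of recording tags encoded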
[30] = target: M17-modified L NTAA target peptides; experiment: encoding assay; P2 E;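 note: fraction of recording tags encoded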
[31] = target: M17-modified N NTAA target peptides; experiment: encoding assay; P2 S;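 note: fraction of recording tags encoded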
[32] = target: M17-modified P NTAA target peptides; experiment: encoding assay; P2 S;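 note: fraction of recording tags encoded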
[33] = target: M17-modified V NTAA target peptides; experiment: encoding assay; P2 S;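 note: fraction of recording tags encoded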
[34] = target: M17-modified I NTAA target peptides; experiment: encoding assay; P2 S;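 note: fraction of recording tags encoded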
[35] = target: M17-modified H NTAA target peptides; experiment: encoding assay; P2 S;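 note: fraction of recording tags encoded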
[36] = target: M17-modified G NTAA target peptides; experiment: encoding assay; P2 S;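 note: fraction of recording tags encoded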
[37] = target: M17-modified S NTAA target peptides; experiment: encoding assay; P2 S;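 note: fraction of recording tags encoded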
[38] = target: M17-modified A NTAA target peptides; experiment: encoding assay; P2 S;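 note: fraction of recording tags encoded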
[39] = target: M17-modified Y NTAA target peptides (M17-Y-P2-peptide); experiment: encoding assay; P2 S;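 note: fraction of recording tags encoded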
[40] = target: M17-modified M NTAA target peptides; experiment: encoding assay; P2 S;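 note: fraction of recording tags encoded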
[41] = target: M17-modified F NTAA target peptides; experiment: encoding assay; P2 S;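 note: fraction of recording tags encoded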
[42] = target: M17-modified E NTAA target peptides; experiment: encoding assay; P2 S;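 note: fraction of recording tags encoded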
[43] = target: M17-modified L NTAA target peptides; experiment: encoding assay; P2 S;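 note: fraction of recording tags encoded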
[44] = target: M17-modified T NTAA target peptides; experiment: encoding assay; P2 S;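 note: fraction of recording tags encoded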
[45] = target: M17-modified Q NTAA target peptides; experiment: encoding assay; P2 S;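 note: fraction of recording tags encoded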
[46] = target: M17-modified D NTAA target peptides; experiment: encoding assay; P2 S;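 note: fraction of recording tags encoded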
[47] = target: M44-modified G NTAA target peptides (M44-G-P2-peptide); experiment: encoding assay; P2 E;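 note: fraction of recording tags encoded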
[48] = target: M44-modified N NTAA target peptides; experiment: encoding assay; P2 S
[49] = target: M44-modified S NTAA target peptides; experiment: encoding assay; P2 S
[50] = target: M44-modified W NTAA target peptides; experiment: encoding assay; P2 S;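 note: fraction of recording tags encoded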
[51] = target: M44-modified D NTAA target peptides; experiment: encoding assay; P2 S;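 note: fraction of recording tags encoded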
[52] = target: M44-modified E NTAA target peptides; experiment: encoding assay; P2 S;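 note: fraction of recording tags encoded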

B1: engineered M44-L binder (SEQ ID NO: 21) (designed binder, not shown: small tags and cut ends; large carriers)
chain: QVSVQPNFQQDKFLGRWFYAGHASNSSWYREKVAALSMAKLVVAPATDGGLNATETFLRKNQCETITSLLQPAGSLGSYSSRSPHGGSTWSTSVVETDYDQYALLYLQGSKGPGEDFRGAILASRTQTPRAELKEKFTAFSKAQGFTEDTIVFLPQTDKCMTEQ
[1]
  encoding yield: 0
[2]
  encoding yield: 0.01
[3]
  encoding yield: 0.01
[4]
  encoding yield: 0.01
[5]
  encoding yield: 0.01
[6]
  encoding yield: 0.01
[7]
  encoding yield: 0.01
[8]
  encoding yield: 0.01
[9]
  encoding yield: 0.01
[10]
  encoding yield: 0.01
[11]
  encoding yield: 0.03
[12]
  encoding yield: 0.14
[13]
  encoding yield: 0.01
[14]
  encoding yield: 0.01
[15]
  encoding yield: 0.09
[16]
  encoding yield: 0.01
[17]
  encoding yield: 0.03
[18]
  encoding yield: 0.02
[19]
  encoding yield: 0.03
[20]
  encoding yield: 0.01
[21]
  encoding yield: 0.01
[22]
  encoding yield: 0.02
[23]
  encoding yield: 0.01
[24]
  encoding yield: 0.01
[25]
  encoding yield: 0.01

B2: engineered M17-Y binder (SEQ ID NO: 61) (designed binder, not shown: small tags and cut ends; large carriers)
chain: TVPDRSEIAGKWYVVALASNTEFYLREKDWVKSAMARISFLGEDELKVSSAVPSPNGCYKVERTWKKTSDDGEVYNSRAAKLKVEVLDTDYKSYAVIYATRVKDGRTDHQMILYSRSPEVSPAATAIFRKLAGERNYTDEMVAMLPRQEECTVDEV
[26]
  encoding yield: 0.02
[27]
  encoding yield: 0.02
[28]
  encoding yield: 0.02
[29]
  encoding yield: 0.02
[30]
  encoding yield: 0.02
[31]
  encoding yield: 0.02
[32]
  encoding yield: 0.01
[33]
  encoding yield: 0.02
[34]
  encoding yield: 0.03
[35]
  encoding yield: 0.02
[36]
  encoding yield: 0.03
[37]
  encoding yield: 0.01
[38]
  encoding yield: 0.02
[39]
  encoding yield: 0.1
[40]
  encoding yield: 0.04
[41]
  encoding yield: 0.04
[42]
  encoding yield: 0.01
[43]
  encoding yield: 0.02
[44]
  encoding yield: 0.02
[45]
  encoding yield: 0.01
[46]
  encoding yield: 0.01

B3: upgraded binder after additional maturation round (SEQ ID NO: 62) (designed binder, not shown: small tags and cut ends; large carriers)
chain: TVPDRSEIAGKWYVVALASNTEFYLRGKDRVKSAMVRISFQGEDELKVSSAVPSPNGCYKVERTWKKTSDDGEVYNSRAAKLKVEVLDTDYKSYAVIYATRVKDRRTDHQMILYSRSPDVSPAATAIFRKLAGERNYTDEMVAMLPRQEECTVDEV
[26]
  encoding yield: 0.03
[27]
  encoding yield: 0.02
[28]
  encoding yield: 0.03
[29]
  encoding yield: 0.03
[30]
  encoding yield: 0.02
[31]
  encoding yield: 0.02
[32]
  encoding yield: 0.02
[33]
  encoding yield: 0.03
[34]
  encoding yield: 0.05
[35]
  encoding yield: 0.03
[36]
  encoding yield: 0.04
[37]
  encoding yield: 0.01
[38]
  encoding yield: 0.02
[39]
  encoding yield: 0.22
[40]
  encoding yield: 0.04
[41]
  encoding yield: 0.07
[42]
  encoding yield: 0.01
[43]
  encoding yield: 0.04
[44]
  encoding yield: 0.04
[45]
  encoding yield: 0.02
[46]
  encoding yield: 0.02

B4: engineered M44-L binder (SEQ ID NO: 31) (designed binder, not shown: small tags and cut ends; large carriers)
chain: QDSTQNLIPAPPLISVPLQPGFWTERFQGRWFLVGFAGNAVQKERQSRLTMQSLILELQEDNSYNITAINVRGQGCRYIISTLVPSSRPGQFTLGNIHSYPQIQSLDVQVADTDYDQFAMVFLQGTSENKQYFEVALAGRTKGLSDELKERFVSFAKSLGLKDNNIVFSVPTDQCIDN
[47]
  encoding yield: 0.01
[48]
  encoding yield: 0.01
[49]
  encoding yield: 0.01
[50]
  encoding yield: 0.01
[51]
  encoding yield: 0.02
[52]
  encoding yield: 0.01
[1]
  encoding yield: 0.01
[2]
  encoding yield: 0.02
[3]
  encoding yield: 0.03
[4]
  encoding yield: 0.02
[5]
  encoding yield: 0.04
[6]
  encoding yield: 0.02
[7]
  encoding yield: 0.02
[8]
  encoding yield: 0.03
[9]
  encoding yield: 0.03
[10]
  encoding yield: 0.04
[11]
  encoding yield: 0.08
[12]
  encoding yield: 0.25
[13]
  encoding yield: 0.05
[14]
  encoding yield: 0.03
[15]
  encoding yield: 0.27
[16]
  encoding yield: 0.04
[17]
  encoding yield: 0.17
[18]
  encoding yield: 0.07
[19]
  encoding yield: 0.17
[20]
  encoding yield: 0.01
[21]
  encoding yield: 0.04
[22]
  encoding yield: 0.11
[23]
  encoding yield: 0.02
[24]
  encoding yield: 0.05
[25]
  encoding yield: 0.03
